In PMC4511217 (Genes & Development, 2015):

T1: Rsa4 ribosome assembly factor within Alb1-TAP purified pre-60S particles (yeast (endogenous in pre-60S particles), UniProt P25382 1-515)
T1 sequence: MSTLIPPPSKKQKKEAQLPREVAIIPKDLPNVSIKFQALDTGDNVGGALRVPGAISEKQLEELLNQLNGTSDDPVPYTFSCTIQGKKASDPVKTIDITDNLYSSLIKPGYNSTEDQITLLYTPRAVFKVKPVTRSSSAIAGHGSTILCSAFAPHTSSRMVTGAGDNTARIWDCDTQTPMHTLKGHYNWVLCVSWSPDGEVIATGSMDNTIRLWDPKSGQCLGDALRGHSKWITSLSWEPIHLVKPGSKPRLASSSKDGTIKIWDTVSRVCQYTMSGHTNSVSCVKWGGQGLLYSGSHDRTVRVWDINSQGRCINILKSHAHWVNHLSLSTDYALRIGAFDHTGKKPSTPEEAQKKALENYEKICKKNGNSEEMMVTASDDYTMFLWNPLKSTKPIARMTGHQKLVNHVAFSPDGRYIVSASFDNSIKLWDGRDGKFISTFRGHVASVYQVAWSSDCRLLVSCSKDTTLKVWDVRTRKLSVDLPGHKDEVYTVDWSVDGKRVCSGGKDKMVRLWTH

T2: Rpf2, full-length, N-terminal 6xHis-tagged (Saccharomyces cerevisiae) (Saccharomyces cerevisiae, UniProt P36160 1-344)
T2 sequence: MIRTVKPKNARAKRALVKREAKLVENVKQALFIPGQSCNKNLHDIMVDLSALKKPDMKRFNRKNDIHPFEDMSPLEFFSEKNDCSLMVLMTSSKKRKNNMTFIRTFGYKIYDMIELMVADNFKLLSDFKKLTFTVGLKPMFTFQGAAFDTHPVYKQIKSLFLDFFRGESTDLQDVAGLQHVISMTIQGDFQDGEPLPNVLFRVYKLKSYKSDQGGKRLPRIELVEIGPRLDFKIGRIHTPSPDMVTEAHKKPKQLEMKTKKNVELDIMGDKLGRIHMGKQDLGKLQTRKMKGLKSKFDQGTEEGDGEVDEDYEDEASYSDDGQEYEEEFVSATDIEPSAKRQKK

B1: Rpl5 (uL18) within Alb1-TAP purified pre-60S particles (natural protein)
chain: MAFQKDAKSSAYSSRFQTPFRRRREGKTDYYQRKRLVTQHKAKYNTPKYRLVVRFTNKDIICQIISSTITGDVVLAAAYSHELPRYGITHGLTNWAAAYATGLLIARRTLQKLGLDETYKGVEEVEGEYELTEAVEDGPRPFKVFLDIGLQRTTTGARVFGALKGASDGGLYVPHSENRFPGWDFETEEIDPELLRSYIFGGHVSQYMEELADDDEERFSELFKGYLADDIDADSLEDIYTSAHEAIRADPAFKPTEKKFTKEQYAAESKKYRQTKLSKEERAARVAAKIAALAGQQ
B2: Rpf2 within Alb1-TAP purified pre-60S particles (natural protein)
chain: T2 sequence
B3: Rrs1, full-length (Saccharomyces cerevisiae) (natural protein)
chain: MSAEDYKNLPVTVEKPIPVVYDLGNLAAFDSNVLDKNDLDSSNARREEKIKSLTRDNVQLLINQLLSLPMKTTTESVGGTGGQSSVMTLLQLPDPTTDLPREKPLPKAKAMTKWEKFAAKKGIKPKERAGKMIYDEASGEWVPKWGYKGANKKLDDQWLVEVDDKVKGTDNELIDPRTLNRAERKRLVKKNEKQQRRNMKNAL
B4: Rrs1 within Alb1-TAP purified pre-60S particles (natural protein)
chain: B3 chain

Columns and labels:
[1] = target: B2; assay: cryo-EM structure
[2] = target: T1, Rsa4 ribosome assembly factor within …; assay: cryo-EM structure
[3] = target: T2, Rpf2, full-length, N-terminal …; assay: SEC + other: SAXS
[4] = target: B1; assay: cryo-EM structure

Binder: B1
binding result [1]: binds

Binder: B2
binding result [2]: binds

Binder: B3
stoichiometry N [3]: 1

Binder: B4
binding result [4]: binds | binding result [2]: binds
